Data reported in the supplement of paper PMC9732359.
± gives the uncertainty stated by the source.

Assay: protein stability index of a GFP-peptide fusion (yeast GPS) (PSI 1-4); higher = more stable; sorted into four equal gates, so the index is relative within each strain
Details: ubr1∆
In short: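 Tiled 17-residue peptides from yeast proteins were fused downstream of GFP on a plasmid that also expresses Cherry, and the pooled library was carried in yeast. Mid-log cultures grown in leucine-free medium were sorted into four equal gates by GFP/Cherry fluorescence ratio. Plasmids from each gate were PCR-amplified and Illumina-sequenced, and reads were assigned to strains by barcodes. Each peptide's protein stability index is the sum, over gates, of the gate's read frequency multiplied by its gate number.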
Work on QKLPQYIIQGSNTNDNI [RGR1] yielded a protein stability index of 3.25 ± 0.091.
QKLWLLECQLFPQGLNI [SSN8] showed a protein stability index of 2.11 ± 0.076.
QKMAELEAARSEKQNDE [PRP8] gave a protein stability index of 1.8 ± 0.09.
QKNFMDQFQWILRKPGK [RRI2] gave a protein stability index of 2.49 ± 0.091.
Work on QKQWDDIAFVLNNLPYK [YCS4] yielded a protein stability index of 3.18 ± 0.086.
QKYVGEGARMVRELFEM [RPT1] showed a protein stability index of 2.92 ± 0.24.
Work on QKYWESMRIQILRRQAI [GAL11] yielded a protein stability index of 2.1 ± 0.058.
Sequence QLAQIRQFLKANKTNLI [YML103C/NUP188] has a protein stability index of 2.93 ± 0.04.
QLELRQLNASISLIPEL [RRI2] gave a protein stability index of 2.85 ± 0.043.
Sequence QLETLTGSIRHRLKLCK [CSE2] has a protein stability index of 2.97 ± 0.21.
With QLFRTNKVQIMIATNVA [PRP28] the protein stability index was 1.7 ± 0.036.
QLGYIENSFYKKEASKT [POP1] gave a protein stability index of 2.39 ± 0.044.
For QLIGSNIELHSLYTSRE [PUP1], the protein stability index was 2.91 ± 0.2.
For QLIKVAVHNGGRKHVAA [RPL9A], the protein stability index was 2.72 ± 0.03.
QLKIQNRQAAASVVPSA [RPL12A] gave a protein stability index of 2.08 ± 0.03.
Sequence QLKNVQLDSYLVNGFSQ [MED2] has a protein stability index of 2.49 ± 0.042.
QLNASISLIPELSVVLS [RRI2] showed a protein stability index of 2.73 ± 0.039.
In the case of QLQQQPQMQCALQNLSQ [YGL172W/NUP49], the protein stability index is reported as 2.18 ± 0.077.
For QLSNWQKIRNSEGISEA [ITC1], the protein stability index was 2.8 ± 0.073.
QLYFKKKVNYKVTSYDI [ISW2] showed a protein stability index of 2.72 ± 0.047.
In the case of QMLIQGVWDVDNPLRQI [BRR2], the protein stability index is reported as 2.78 ± 0.14.
For QMQQQQQAQAQAQAQAQ [GAL11], the protein stability index was 1.97 ± 0.057.
In the case of QNDILQESFINTMSAWV [FAS2], the protein stability index is reported as 2.28 ± 0.086.
For QNIAQSSNQSAPVETKK [HRT1], the protein stability index was 3.16 ± 0.067.
QNNSTGSSSIIYYDSYI [SSN2] showed a protein stability index of 2.81 ± 0.081.
Work on QNRPYNHPELQGITRNV [RPC17] yielded a protein stability index of 2.17 ± 0.049.
QNSANNNSDDEDVDDEE [IRR1] showed a protein stability index of 3.34 ± 0.1.
With QNSLLTNTHPNFLSKIR [SNF2] the protein stability index was 2.94 ± 0.047.
QPSQQPQQAQQQPNPLH [GAL11] showed a protein stability index of 2.97 ± 0.034.
QPVNFNRSWDHAYNITF [RPO31] showed a protein stability index of 2.45 ± 0.047.
Sequence QQMHEVRKELRGRAVVL [RPP0] has a protein stability index of 2.58 ± 0.073.
QQQQQFRHHVQIQQQQQ [SNF5] showed a protein stability index of 1.32 ± 0.025.
QQQQQHQQQQQQQQQQQ [SNF5] showed a protein stability index of 2.97 ± 0.044.
QQQQQQQQQQQQQQQQH [GAL11] showed a protein stability index of 2.878 ± 0.024.
Sequence QQQQQQQQRRQLTPQQQ [GAL11] has a protein stability index of 2.833 ± 0.022.
For QQQSSQNTVPNVLNQIN [GAL11], the protein stability index was 2.01 ± 0.042.
With QQRIVSAYEASMVYSNV [RRP4] the protein stability index was 2.33 ± 0.046.
With QQSNKLHCCIQLLMGDI [RPN3] the protein stability index was 1.84 ± 0.054.
With QQTEHETEIKDLTQLLE [SMC4] the protein stability index was 3.34 ± 0.046.
QRARDQDSIDISIKDNK [GAL11] showed a protein stability index of 3.13 ± 0.086.
For QRCKSNAISLQLKYDTS [YIL149C/MLP2], the protein stability index was 1.79 ± 0.047.
For QRDFRKHGAVHLSTYLK [RPL21A], the protein stability index was 2.71 ± 0.036.
In the case of QREDKLKSHYYQTCKNS [SMC2], the protein stability index is reported as 1.42 ± 0.054.
Sequence QRETYDSNESDDDVTPS [YLR335W/NUP2] has a protein stability index of 2.65 ± 0.18.
In the case of QRITIPNVCNMKQYRDF [PRP28], the protein stability index is reported as 2.58 ± 0.11.
Sequence QRKTVNSDDILSLHENY [POP1] has a protein stability index of 2.92 ± 0.039.
Work on QRQKTYVERFETQLKVV [SMC1] yielded a protein stability index of 1.24 ± 0.061.
In the case of QRRCLHCGALNGVVKKA [RPO31], the protein stability index is reported as 2.59 ± 0.11.
QRRSWRQYVGQLAPSSV [DIS3] gave a protein stability index of 2.36 ± 0.078.
With QRRVLLSAPLSKELRAQ [RPL26A] the protein stability index was 2.39 ± 0.063.
QRTCLMTVTFLILAGQV [YCS4] showed a protein stability index of 1.43 ± 0.043.
QRYQDLSQQQKDAQKKD [YIL149C/MLP2] showed a protein stability index of 2.94 ± 0.046.
Work on QSFQNPFTASQSNINTN [YIL149C/MLP2] yielded a protein stability index of 2.73 ± 0.043.
In the case of QSNINTNAPLRTLNIQP [YIL149C/MLP2], the protein stability index is reported as 2.19 ± 0.076.
In the case of QSRLMSTSYHLNSTLES [MED6], the protein stability index is reported as 2.37 ± 0.062.
QSSGKLKEYLDLVARTA [YDL116W/NUP84] showed a protein stability index of 2.74 ± 0.15.
Sequence QSVEEKVLEMKNLKDTA [YIL149C/MLP2] has a protein stability index of 2.78 ± 0.089.
For QTENDLKDIEARIKEKA [RPT1], the protein stability index was 3.37 ± 0.065.
With QTFGVDILAKLFSLEKP [SWI1] the protein stability index was 2.51 ± 0.046.
For QTGIFVYQNNITPSAMK [RPB5], the protein stability index was 3.36 ± 0.12.
For QTLLANSDHAKFTIEPG [SNF2], the protein stability index was 2.37 ± 0.063.
For QTNIWEENWDDVEVDDD [SEM1], the protein stability index was 3.38 ± 0.13.
Work on QTQQDLPKVRYNVEKVK [NSL1] yielded a protein stability index of 2.33 ± 0.079.
In the case of QTTEGYDPKDALKNACN [RPB11], the protein stability index is reported as 3.35 ± 0.15.
Sequence QVDKVTKEKVNGASVPI [RPL26A] has a protein stability index of 3.08 ± 0.046.
Work on QVLKCKESWDPNTTKTK [YGR119C/NUP57] yielded a protein stability index of 3.55 ± 0.15.
With QVLVCTATLAWGVNLPA [BRR2] the protein stability index was 2.12 ± 0.059.
Work on QVMEEKLDENNAQLSCI [PUP2] yielded a protein stability index of 3.17 ± 0.17.
QVPSSLIVRAKNHTHNL [RRP4] gave a protein stability index of 2.87 ± 0.055.
For QVRKKQIETINFLRLPA [YDL116W/NUP84], the protein stability index was 2.81 ± 0.11.
With QWFLQYQNQFVEFCRNI [YML103C/NUP188] the protein stability index was 2.24 ± 0.1.
QWGKYQTFGVDILAKLF [SWI1] showed a protein stability index of 2.27 ± 0.053.
In the case of QYTKDEQFYTKDIIDPK [RPN2], the protein stability index is reported as 3.29 ± 0.065.
Work on QYVTQIEQEKQEQQEQD [PRE6] yielded a protein stability index of 1.9 ± 0.045.
In the case of QYYLSVLNQQLPIESQF [BRR2], the protein stability index is reported as 2.42 ± 0.039.
With QYYVTQHDKMVDKIFEK [SWI1] the protein stability index was 2.84 ± 0.034.
In the case of RAASAKIESSVESQFSA [RPS8A], the protein stability index is reported as 3.45 ± 0.14.
With RAEALNISGEFFRNKLK [RPL16B] the protein stability index was 2.9 ± 0.13.
RAGVCEYNEDSRLCTPI [RPN13] showed a protein stability index of 2.84 ± 0.072.
RALRRALTKFEASQVTE [RPL35A] gave a protein stability index of 3.19 ± 0.1.
For RANVYVGFLVQLDLTGI [PRP8], the protein stability index was 2.45 ± 0.05.
In the case of RAQRVAEKRDALLKEDA [RPL19A], the protein stability index is reported as 3.47 ± 0.091.
Work on RARVTKDLVEIKKEEGK [RPN5] yielded a protein stability index of 3.59 ± 0.077.
For RATPATLTELKDALSNS [SRB2], the protein stability index was 3.42 ± 0.1.
Work on RAVKEIKKFAKLHMGTD [RPL31A] yielded a protein stability index of 1.58 ± 0.035.
Work on RAVKEIKKFAKLHMGTE [RPL31B] yielded a protein stability index of 2.61 ± 0.086.
In the case of RAVLKSFLESVIRDSVT [HHF1], the protein stability index is reported as 2.12 ± 0.049.
With RAYMRPLGVILTFVSVD [SCL1] the protein stability index was 2.16 ± 0.04.
In the case of RCFENLQNKSFKSVLPI [UBP6], the protein stability index is reported as 2.45 ± 0.057.
With RCKIYFFYLRISKKLQF [PCI8] the protein stability index was 1.35 ± 0.052.
RDEIAKNTELSYDFLPL [RPN12] gave a protein stability index of 2.32 ± 0.05.
RDHKSYSQSPPRSPGRS [SMC4] gave a protein stability index of 2.87 ± 0.052.
Sequence RDLKPSNLEKLLFINSS [YML103C/NUP188] has a protein stability index of 1.69 ± 0.1.
REASKDNVDFILSNVDL [RPB3] showed a protein stability index of 3.32 ± 0.073.
In the case of REGSSARTIKATLPYIK [RPB2], the protein stability index is reported as 2.69 ± 0.059.
REIQTAVRLILPGELAK [HTB1] showed a protein stability index of 3.08 ± 0.051.
REKNSLESGKETALEFL [SMC4] gave a protein stability index of 3.63 ± 0.093.
Work on RELLKSQVEDFTRIFLP [SIR3] yielded a protein stability index of 3.33 ± 0.045.
With REMALCRELHNKHLTTL [SSN3] the protein stability index was 1.8 ± 0.038.
Sequence RENGKGGQIAHILFQNN [ROX3] has a protein stability index of 2.48 ± 0.12.
Sequence REPDFWVIRKQRRTNNS [MED6] has a protein stability index of 2.93 ± 0.096.
REPRVVSALQMLKQHLF [PUP1] showed a protein stability index of 2.79 ± 0.049.
